*1 amine or outer side, *2 acyl side, *3 side chain or, on linkers, in order; H or OH if unused. Where a SMILES comes first, the peptide text is derived from it. Bridges are numbered along the chain shown (N, C = ends). [ ]: non-standard residue; d: D form. Benzene(1,3-(CH2SCH2CO)2) = O=C(CSCc1cccc(CSCC(=O)[*:2])c1)[*:1]; X3 = O=C(CSCCCCCCCCSCC(=O)[*:2])[*:1]; X1 = O=C(CSCCCCCCSCC(=O)[*:2])[*:1]; dDap = NC[C@@H](N)C(=O)O; Dap = NC[C@H](N)C(=O)O
system: not listed separately; assay: circular dichroism; details: water; pH ns; 25 °C; 70 uM

First: CC[C@H](C)[C@@H]1NC(=O)[C@H](NC(=O)[C@H](CCC(=O)O)NC(=O)[C@@H]2CCCN2C(=O)[C@H](CC(N)=O)NC(=O)[C@H](CCC(=O)O)NC(C)=O)CNC(=O)CSCc2ccc(cc2)CSCC(=O)NC[C@H](C(=O)N[C@@H](Cc2c[nH]cn2)C(=O)N[C@H](C(=O)N[C@@H](CCC(N)=O)C(=O)N[C@@H](CCCNC(=N)N)C(=O)N[C@H](C(=O)N[C@@H](CCSC)C(N)=O)C(C)C)C(C)C)NC(=O)[C@H](CC(=O)O)NC(=O)[C@H](CC(C)C)NC1=O
Second: CC[C@H](C)[C@@H]1NC(=O)[C@H](NC(=O)[C@H](CCC(=O)O)NC(=O)[C@@H]2CCCN2C(=O)[C@H](CC(N)=O)NC(=O)[C@H](CCC(=O)O)NC(C)=O)CNC(=O)CSCCCCCCSCC(=O)NC[C@H](C(=O)N[C@@H](Cc2c[nH]cn2)C(=O)N[C@H](C(=O)N[C@@H](CCC(N)=O)C(=O)N[C@@H](CCCNC(=N)N)C(=O)N[C@H](C(=O)N[C@@H](CCSC)C(N)=O)C(C)C)C(C)C)NC(=O)[C@H](CC(=O)O)NC(=O)[C@H](CC(C)C)NC1=O (Ac-ENPE[dDap]ILD[dDap]HVQRVM-NH2; linker 5-9 via X1)
The helicity of the first is lower: 19% for the first, 28% for the second.

`CC[C@H](C)[C@@H]1NC(=O)[C@@H](NC(=O)[C@H](CCC(=O)O)NC(=O)[C@@H]2CCCN2C(=O)[C@H](CC(N)=O)NC(=O)[C@H](CCC(=O)O)NC(C)=O)CNC(=O)CSCCCCCCCCSCC(=O)NC[C@@H](C(=O)N[C@@H](Cc2c[nH]cn2)C(=O)N[C@H](C(=O)N[C@@H](CCC(N)=O)C(=O)N[C@@H](CCCNC(=N)N)C(=O)N[C@H](C(=O)N[C@@H](CCSC)C(N)=O)C(C)C)C(C)C)NC(=O)[C@H](CC(=O)O)NC(=O)[C@H](CC(C)C)NC1=O` (Ac-ENPE[Dap]ILD[Dap]HVQRVM-NH2; linker 5-9 via X3) and `CC[C@H](C)[C@@H]1NC(=O)[C@H](NC(=O)[C@H](CCC(=O)O)NC(=O)[C@@H]2CCCN2C(=O)[C@H](CC(N)=O)NC(=O)[C@H](CCC(=O)O)NC(C)=O)CNC(=O)CSCCCCCCCCSCC(=O)NC[C@H](C(=O)N[C@@H](Cc2c[nH]cn2)C(=O)N[C@H](C(=O)N[C@@H](CCC(N)=O)C(=O)N[C@@H](CCCNC(=N)N)C(=O)N[C@H](C(=O)N[C@@H](CCSC)C(N)=O)C(C)C)C(C)C)NC(=O)[C@H](CC(=O)O)NC(=O)[C@H](CC(C)C)NC1=O` (Ac-ENPE[dDap]ILD[dDap]HVQRVM-NH2; linker 5-9 via X3) are the same in helicity: 25% for the first, 25% for the second.

First: CC(=O)N[C@@H](CCC(N)=O)C(=O)N[C@@H](CO)C(=O)N[C@@H](CCC(N)=O)C(=O)N[C@@H](CCC(N)=O)C(=O)N[C@H](C(=O)N[C@@H](Cc1ccccc1)C(=O)N[C@H]1CNC(=O)CSCCCCCCCSCC(=O)NC[C@H](C(=O)N[C@@H](CCC(N)=O)C(=O)N[C@@H](CC(N)=O)C(N)=O)NC(=O)[C@H](CC(C)C)NC(=O)[C@H](CC(C)C)NC(=O)[C@H](CCCNC(=N)N)NC(=O)[C@H](Cc2c[nH]c3ccccc23)NC(=O)[C@H](CC(C)C)NC(=O)[C@H](CC(N)=O)NC1=O)[C@@H](C)O
Second: CC(=O)N[C@@H](CCC(N)=O)C(=O)N[C@@H](CO)C(=O)N[C@@H](CCC(N)=O)C(=O)N[C@@H](CCC(N)=O)C(=O)N[C@H](C(=O)N[C@@H](Cc1ccccc1)C(=O)N[C@H]1CNC(=O)CSCCCCCCCSCC(=O)NC[C@@H](C(=O)N[C@@H](CCC(N)=O)C(=O)N[C@@H](CC(N)=O)C(N)=O)NC(=O)[C@H](CC(C)C)NC(=O)[C@H](CC(C)C)NC(=O)[C@H](CCCNC(=N)N)NC(=O)[C@H](Cc2c[nH]c3ccccc23)NC(=O)[C@H](CC(C)C)NC(=O)[C@H](CC(N)=O)NC1=O)[C@@H](C)O
The helicity of the first is higher: 40% for the first, 36% for the second.

Compared with `CC[C@H](C)[C@@H]1NC(=O)[C@@H](NC(=O)[C@@H](N)CCC(=O)O)CNC(=O)CSCc2cccc(c2)CSCC(=O)NC[C@H](C(=O)N[C@@H](Cc2c[nH]cn2)C(=O)O)NC(=O)[C@H](CC(=O)O)NC(=O)[C@H](CC(C)C)NC1=O` (H-E[Dap]ILD[dDap]H-OH; linker 2-6 via Benzene(1,3-(CH2SCH2CO)2)), `CC[C@H](C)[C@@H]1NC(=O)[C@H](NC(=O)[C@@H](N)CCC(=O)O)CNC(=O)CSCc2cccc(c2)CSCC(=O)NC[C@@H](C(=O)N[C@@H](Cc2c[nH]cn2)C(=O)O)NC(=O)[C@H](CC(=O)O)NC(=O)[C@H](CC(C)C)NC1=O` (H-E[dDap]ILD[Dap]H-OH; linker 2-6 via Benzene(1,3-(CH2SCH2CO)2)) is lower in helicity: 39% for the first, 13% for the second.

First: CC(=O)N[C@@H](CCC(N)=O)C(=O)N[C@@H](CO)C(=O)N[C@@H](CCC(N)=O)C(=O)N[C@@H](CCC(N)=O)C(=O)N[C@H](C(=O)N[C@@H](Cc1ccccc1)C(=O)N[C@H]1CNC(=O)CSCc2ccc(cc2)-c2ccc(cc2)CSCC(=O)NC[C@H](C(=O)N[C@@H](CCC(N)=O)C(=O)N[C@@H](CC(N)=O)C(N)=O)NC(=O)[C@H](CC(C)C)NC(=O)[C@H](CC(C)C)NC(=O)[C@H](CCCNC(=N)N)NC(=O)[C@H](Cc2c[nH]c3ccccc23)NC(=O)[C@H](CC(C)C)NC(=O)[C@H](CC(N)=O)NC1=O)[C@@H](C)O
Second: CC[C@H](C)[C@@H]1NC(=O)[C@@H](NC(=O)[C@H](CCC(=O)O)NC(=O)[C@@H]2CCCN2C(=O)[C@H](CC(N)=O)NC(=O)[C@H](CCC(=O)O)NC(C)=O)CNC(=O)CSCCCCCCCCSCC(=O)NC[C@H](C(=O)N[C@@H](Cc2c[nH]cn2)C(=O)N[C@H](C(=O)N[C@@H](CCC(N)=O)C(=O)N[C@@H](CCCNC(=N)N)C(=O)N[C@H](C(=O)N[C@@H](CCSC)C(N)=O)C(C)C)C(C)C)NC(=O)[C@H](CC(=O)O)NC(=O)[C@H](CC(C)C)NC1=O (Ac-ENPE[Dap]ILD[dDap]HVQRVM-NH2; linker 5-9 via X3)
The helicity of the first is higher: 18% for the first, 14% for the second.

system: DLD-1 cells; assay: 5-day growth inhibition of DLD-1 cancer cells; format: cell-based; details: DLD-1, 5 days, CellTiter Glo, highest tested 16 µM
Method: For growth inhibition by Axin peptides, DLD-1 cells were cultured and maintained as mentioned before. Right before the assay, cells were resuspended in fresh RPMI media supplemented with 10% FBS, 100 IU/mL penicillin, and 100 µg/mL streptomycin, and plated onto 96-well white flat-bottom plates at 1000 cells per well (90 µL media/well). After overnight incubation, peptide samples were serially diluted as 10× stock in PBS buffer (10% DMSO), and were added to the plated cells at 10 µL stock solution/well in triplicate to make final treatment concentrations of 0, 0.0625, 0.125, 0.25, 0.5, 1, 2, 4, 8, 16 µM. The wells on the edges of plates were filled with PBS buffer to avoid unwanted evaporation of samples. The samples on the plates were incubated at 37 °C, 5% CO2 for 5 days, and the cell viability was evaluated by CellTiter Glo (Promega). The luminescence signals were recorded by the H1 synergy plate reader (Biotek) using the Gen5 software, and were normalized against the control groups (100%) for which cells were only treated with the vehicle (PBS/1% DMSO). Control HEK293 cells were cultured in DMEM media supplemented with 10% FBS, 1% penicillin/streptomycin at 37 °C, 5% CO2, then incubated with peptide samples and measured for viability in the same manner as mentioned above. For Axin peptide analogues’ time-dependent cytotoxicity, peptide analogues were mixed with cells (1000 cells per well) at a final concentration of 0, 5, 10, and 15 µM. The cell viabilities were meaured via CellTiter Glo after incubation of 1 day, 2 days, and 4 days, respectively. […] After 24 h of incubation, the cell viabilities were measured and normalized against the vehicle control groups the same as mentioned above.

In the case of `CC[C@H](C)[C@@H]1NC(=O)[C@@](C)(NC(=O)[C@H](CCC(N)=O)NC(=O)[C@@H]2CCCN2C(=O)[C@H](Cc2c[nH]c3ccccc23)NC(=O)[C@H](CCCNC(=N)N)NC(=O)COCCOCCNC(=S)Nc2ccc3c(c2)C(=O)OC32c3ccc(O)cc3Oc3cc(O)ccc32)CCC/C=C\CCC[C@@](C)(C(=O)N[C@@H](Cc2c[nH]cn2)C(=O)N[C@H](C(=O)N[C@@H](CCCNC(=N)N)C(=O)N[C@@H](CCCNC(=N)N)C(=O)N[C@H](C(=O)N[C@@H](Cc2c[nH]c3ccccc23)C(=O)N[C@@H](CCCNC(=N)N)C(N)=O)C(C)C)C(C)C)NC(=O)[C@H](CC(=O)O)NC(=O)[C@H](CC(C)C)NC1=O` [compound 68, reference compound], the “concentration at which significant growth inhibition was first displayed” value is reported as 16 µM.
